In paper PMC9352680, “A comprehensive thermodynamic model for RNA binding by the Saccharomyces cerevisiae Pumilio protein PUF4”:
Where a chain is given by its changes, count along the chain named. In names and notes the source's numbering stands.

Target: T1, PUF4 RNA-binding domain (Saccharomyces cerevisiae, UniProt P25339 537-888)
T1 sequence: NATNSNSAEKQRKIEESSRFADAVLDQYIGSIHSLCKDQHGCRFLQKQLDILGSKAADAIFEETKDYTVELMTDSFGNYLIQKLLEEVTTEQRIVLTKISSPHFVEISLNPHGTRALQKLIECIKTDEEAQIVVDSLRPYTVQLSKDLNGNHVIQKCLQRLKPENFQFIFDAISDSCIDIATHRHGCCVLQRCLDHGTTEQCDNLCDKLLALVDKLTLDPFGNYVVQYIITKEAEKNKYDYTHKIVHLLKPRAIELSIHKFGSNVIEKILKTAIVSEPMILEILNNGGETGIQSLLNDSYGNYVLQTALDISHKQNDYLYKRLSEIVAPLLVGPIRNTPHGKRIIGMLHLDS
Assay: Mg; RNA-MaP; 20 mM Na-HEPES pH 7.4, 30 mM KOAc, 0.75 mM MgCl2, 0.1% Tween-20, 5% glycerol, 0.1 mg/mL BSA, 2 mM DTT; 25 C; 0.0125-409.6 nM protein
Settings: tags: N-His6-TEV cleaved; C-SNAP kept, Cy3B-labelled; label: tethered on chip by stalled RNA polymerase

B1: Ic_S4_P4E.1_K4.1_C4.1_H4.1_A4.1_[T5A]_[A6C]_F4.1_[T8A]_[A9T]_T4.1 (ssRNA)
RNA: UUUGACAACUGAUCGUUCUUUCUUGUAACUAUUUCUUUCUCGAUCAGUUGUCUUU
  Kd: 49.4 nM

B2: Ic_S4_P4E.1_K4.1_C4.1_H4.1_A4.1_[T5A]_[A6C]_F4.1_[A9G]_T4.1 (ssRNA)
RNA: B1 RNA with A31U, U32G
  Kd: 84.8 nM

B3: Ic_S4_P4E.1_K4.1_C4.1_H4.1_A4.1_[T5A]_[A6C]_F4.1_T4.1 (ssRNA)
RNA: B1 RNA with A31U, U32A
  Kd: 3.93 nM

B4: Ic_S4_P4E.1_K4.1_C4.1_H4.1_A4.1_[T5A]_[A6T]_[T7G]_F4.1_[T8C]_[A9C]_T4.1 (ssRNA)
RNA: B1 RNA with C29U, U30G, A31C, U32C
  Kd: 1200 nM

B5: Ic_S4_P4E.1_K4.1_C4.1_H4.1_A4.1_[T5A]_[A6T]_[T7G]_F4.1_[T8C]_[A9T]_T4.1 (ssRNA)
RNA: B1 RNA with C29U, U30G, A31C
  Kd: 518 nM

B6: Ic_S4_P4E.1_K4.1_C4.1_H4.1_A4.1_[T5A]_[A6T]_[T7C]_F4.1_[T8G]_[A9G]_T4.1 (ssRNA)
RNA: B1 RNA with C29U, U30C, A31G, U32G
  Kd: 1920 nM

B7: Ic_S4_P4E.1_K4.1_C4.1_H4.1_A4.1_[T5A]_[A6T]_[T7C]_F4.1_[T8C]_T4.1 (ssRNA)
RNA: B1 RNA with C29U, U30C, A31C, U32A
  Kd: 464 nM

## UCUCUUUGUAUGUAAUCUCUU (ssRNA) [Ib_S1_P4E.1_K4.1_C4.1_H4.1_A4.1_[A6G]_F4.1_[T8A]_T4.1]
  Kd: 94.6 nM

B8: Ic_S4_P4E.1_K4.1_C4.1_H4.1_A4.1_[T5A]_[A6T]_[T7C]_F4.1_[T8A]_[A9G]_T4.1 (ssRNA)
RNA: B1 RNA with C29U, U30C, U32G
  Kd: 1080 nM

B9: Ic_S4_P4E.1_K4.1_C4.1_H4.1_A4.1_[T5A]_[A6T]_[T7C]_F4.1_[T8A]_[A9C]_T4.1 (ssRNA)
RNA: B1 RNA with C29U, U30C, U32C
  Kd: 1050 nM

B10: Ic_S4_P4E.1_K4.1_C4.1_H4.1_A4.1_[T5A]_[A6T]_[T7C]_F4.1_[A9G]_T4.1 (ssRNA)
RNA: B1 RNA with C29U, U30C, A31U, U32G
  Kd: 41.6 nM

B11: Ic_S4_P4E.1_K4.1_C4.1_H4.1_A4.1_[T5A]_[A6T]_[T7C]_F4.1_[A9T]_T4.1 (ssRNA)
RNA: B1 RNA with C29U, U30C, A31U
  Kd: 34.8 nM

B12: Ic_S4_P4E.1_K4.1_C4.1_H4.1_A4.1_[T5A]_[A6T]_[T7A]_F4.1_[T8C]_[A9T]_T4.1 (ssRNA)
RNA: B1 RNA with C29U, U30A, A31C
  Kd: 116 nM

B13: Ic_S4_P4E.1_K4.1_C4.1_H4.1_A4.1_[T5A]_[A6T]_[T7A]_F4.1_[T8C]_T4.1 (ssRNA)
RNA: B1 RNA with C29U, U30A, A31C, U32A
  Kd: 555 nM

B14: Ic_S4_P4E.1_K4.1_C4.1_H4.1_A4.1_[T5A]_[A6T]_[T7A]_F4.1_[T8A]_[A9C]_T4.1 (ssRNA)
RNA: B1 RNA with C29U, U30A, U32C
  Kd: 314 nM

B15: Ic_S4_P4E.1_K4.1_C4.1_H4.1_A4.1_[T5A]_[A6T]_[T7A]_F4.1_[T8A]_T4.1 (ssRNA)
RNA: B1 RNA with C29U, U30A, U32A
  Kd: 144 nM

B16: Ic_S4_P4E.1_K4.1_C4.1_H4.1_A4.1_[T5A]_[A6T]_[T7A]_F4.1_[A9G]_T4.1 (ssRNA)
RNA: B1 RNA with C29U, U30A, A31U, U32G
  Kd: 21.6 nM

B17: Ic_S4_P4E.1_K4.1_C4.1_H4.1_A4.1_[T5A]_[A6T]_[T7A]_F4.1_[A9C]_T4.1 (ssRNA)
RNA: B1 RNA with C29U, U30A, A31U, U32C
  Kd: 46.2 nM

## UCUCUUUGUAUCUAAUCUCUU (ssRNA) [Ib_S1_P4E.1_K4.1_C4.1_H4.1_A4.1_[A6C]_F4.1_[T8A]_T4.1]
  Kd: 49.3 nM

B18: Ic_S4_P4E.1_K4.1_C4.1_H4.1_A4.1_[T5A]_[A6T]_[T7A]_F4.1_T4.1 (ssRNA)
RNA: B1 RNA with C29U, U30A, A31U, U32A
  Kd: 1.95 nM

B19: Ic_S4_P4E.1_K4.1_C4.1_H4.1_A4.1_[T5A]_[A6T]_F4.1_[T8G]_[A9C]_T4.1 (ssRNA)
RNA: B1 RNA with C29U, A31G, U32C
  Kd: 421 nM

B20: Ic_S4_P4E.1_K4.1_C4.1_H4.1_A4.1_[T5A]_[A6T]_F4.1_[T8C]_T4.1 (ssRNA)
RNA: B1 RNA with C29U, A31C, U32A
  Kd: 205 nM

B21: Ic_S4_P4E.1_K4.1_C4.1_H4.1_A4.1_[T5A]_[A6T]_F4.1_[T8A]_[A9G]_T4.1 (ssRNA)
RNA: B1 RNA with C29U, U32G
  Kd: 467 nM

B22: Ic_S4_P4E.1_K4.1_C4.1_H4.1_A4.1_[T5A]_[A6T]_F4.1_[T8A]_[A9T]_T4.1 (ssRNA)
RNA: B1 RNA with C29U
  Kd: 56.2 nM

B23: Ic_S4_P4E.1_K4.1_C4.1_H4.1_A4.1_[T5A]_[A6T]_F4.1_[A9C]_T4.1 (ssRNA)
RNA: B1 RNA with C29U, A31U, U32C
  Kd: 64.3 nM

B24: Ic_S4_P4E.1_K4.1_C4.1_H4.1_A4.1_[T5A]_[A6T]_F4.1_T4.1 (ssRNA)
RNA: B1 RNA with C29U, A31U, U32A
  Kd: 2.38 nM

B25: Ic_S4_P4E.1_K4.1_C4.1_H4.1_A4.1_[T5A]_[T7C]_F4.1_[T8G]_[A9T]_T4.1 (ssRNA)
RNA: B1 RNA with C29A, U30C, A31G
  Kd: 506 nM

B26: Ic_S4_P4E.1_K4.1_C4.1_H4.1_A4.1_[T5A]_[T7C]_F4.1_[T8C]_[A9G]_T4.1 (ssRNA)
RNA: B1 RNA with C29A, U30C, A31C, U32G
  Kd: 942 nM

B27: Ic_S4_P4E.1_K4.1_C4.1_H4.1_A4.1_[T5A]_[T7C]_F4.1_[T8C]_[A9C]_T4.1 (ssRNA)
RNA: B1 RNA with C29A, U30C, A31C, U32C
  Kd: 455 nM
